Data set [1] has as its target human topoisomerase IIα (human, UniProt P11388 1-1531). The experiment in a line: pull-down.
The target in data set [2] is DNA topoisomerase II alpha (Homo sapiens, UniProt P11388 1-1531). The experiment in a line: EMSA. Background: In EMSA bound probe runs differently from free probe, usually more slowly.
Chain of DNA topoisomerase II alpha (P11388 whole entry): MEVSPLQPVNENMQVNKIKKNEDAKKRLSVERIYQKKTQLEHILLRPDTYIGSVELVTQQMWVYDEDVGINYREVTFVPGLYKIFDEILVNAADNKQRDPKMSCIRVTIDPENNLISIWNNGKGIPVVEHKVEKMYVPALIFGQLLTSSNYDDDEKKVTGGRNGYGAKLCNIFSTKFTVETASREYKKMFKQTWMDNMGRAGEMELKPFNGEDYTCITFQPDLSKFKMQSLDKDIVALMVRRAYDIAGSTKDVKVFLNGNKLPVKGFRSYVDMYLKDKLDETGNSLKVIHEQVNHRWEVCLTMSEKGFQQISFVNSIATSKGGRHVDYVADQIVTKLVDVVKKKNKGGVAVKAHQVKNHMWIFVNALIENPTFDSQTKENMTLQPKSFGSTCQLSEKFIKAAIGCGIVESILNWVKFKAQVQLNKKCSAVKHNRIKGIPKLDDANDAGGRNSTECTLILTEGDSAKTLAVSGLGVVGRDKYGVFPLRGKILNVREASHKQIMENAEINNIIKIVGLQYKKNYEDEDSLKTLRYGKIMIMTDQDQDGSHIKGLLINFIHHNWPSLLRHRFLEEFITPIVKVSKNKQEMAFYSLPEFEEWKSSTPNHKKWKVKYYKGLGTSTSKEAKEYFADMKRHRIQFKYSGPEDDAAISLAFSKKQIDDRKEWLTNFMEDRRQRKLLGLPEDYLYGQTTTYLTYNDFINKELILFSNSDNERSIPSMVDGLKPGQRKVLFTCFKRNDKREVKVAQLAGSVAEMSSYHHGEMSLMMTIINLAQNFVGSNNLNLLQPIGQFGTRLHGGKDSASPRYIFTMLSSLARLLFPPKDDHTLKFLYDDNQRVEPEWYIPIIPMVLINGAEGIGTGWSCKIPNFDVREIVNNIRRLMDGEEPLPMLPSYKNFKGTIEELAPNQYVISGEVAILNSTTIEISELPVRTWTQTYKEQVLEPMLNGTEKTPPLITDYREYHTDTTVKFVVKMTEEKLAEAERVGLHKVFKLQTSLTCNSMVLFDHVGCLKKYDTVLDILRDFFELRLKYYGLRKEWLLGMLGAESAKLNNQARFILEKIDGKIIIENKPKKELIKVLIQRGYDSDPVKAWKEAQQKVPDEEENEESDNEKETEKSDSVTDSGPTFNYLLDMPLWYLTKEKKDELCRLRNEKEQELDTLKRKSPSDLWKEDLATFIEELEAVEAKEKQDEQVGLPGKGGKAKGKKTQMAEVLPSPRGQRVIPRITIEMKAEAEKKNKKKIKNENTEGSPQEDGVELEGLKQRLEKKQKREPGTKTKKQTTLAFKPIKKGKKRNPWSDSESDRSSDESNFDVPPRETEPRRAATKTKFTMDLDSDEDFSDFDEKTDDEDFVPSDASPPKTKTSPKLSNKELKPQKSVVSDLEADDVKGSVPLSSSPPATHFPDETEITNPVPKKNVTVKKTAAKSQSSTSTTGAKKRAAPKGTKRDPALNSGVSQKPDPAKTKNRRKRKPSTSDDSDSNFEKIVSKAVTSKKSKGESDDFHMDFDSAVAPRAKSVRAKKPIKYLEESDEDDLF

Chain of human topoisomerase IIα (P11388 whole entry): as above

B1: GST-HMGB1-ΔC (HMGB1 di-domain A+B, residues 1-180) (domain or fragment, rat, UniProt P63159 1-180, looked up)
chain: MGKGDPKKPRGKMSSYAFFVQTCREEHKKKHPDASVNFSEFSKKCSERWKTMSAKEKGKFEDMAKADKARYEREMKTYIPPKGETKKKFKDPNAPKRPPSAFFLFCSEYRPKIKGEHPGLSIGDVAKKLGEMWNNTAADDKQPYEKKAAKLKEKYEKDIAAYRAKGKPDAAKKGVVKAEK
On to B1, for which the binding result in data set [1] is listed as “binds”.

B2: GST-HMGB1 domain A (residues 1-88) (domain or fragment, rat, UniProt P63159 1-88, looked up)
chain: MGKGDPKKPRGKMSSYAFFVQTCREEHKKKHPDASVNFSEFSKKCSERWKTMSAKEKGKFEDMAKADKARYEREMKTYIPPKGETKKK
For B2, the binding result in data set [1] was “binds”.

B3: GST-HMGB1 domain B (residues 85-180) (domain or fragment, rat, UniProt P63159 85-180, looked up)
chain: TKKKFKDPNAPKRPPSAFFLFCSEYRPKIKGEHPGLSIGDVAKKLGEMWNNTAADDKQPYEKKAAKLKEKYEKDIAAYRAKGKPDAAKKGVVKAEK
As to B3, the binding result in data set [1] is listed as “binds”.

B4: 36-bp duplex oligo_1/oligo_2 (dsDNA)
DNA 1: ATGAAATCTAACAATGCGCTCATCGTCATCCTCGGC
DNA 2: GCCGAGGATGACGATGAGCGCATTGTTAGATTTCAT
On to B4, for which, in data set [2], the binding signal was ~10 fold increase in topo IIα binding vs no HMGB1 (up to).

The values above are taken from article PMC1976466 (Nucleic Acids Research, 2007).
